Measured values taken from patent US12187807B2, “Antibody molecules to C5AR1 and uses thereof” (Visterra, Inc., priority 2020, dated 2025).

Legend:
[1] = target: T1, C5aR1 on human neutrophils (Homo sapiens, UniProt P21730); test: Cell surface binding (flow cytometry), human neutrophils; conditions: half-log titrations 10^−7.5 to 10^−12 M, vs isotype controls
T1 construct: neutrophils isolated from whole blood; host or cells: human neutrophils (cryopreserved, or isolated from whole blood)
T1 sequence (P21730 1-350): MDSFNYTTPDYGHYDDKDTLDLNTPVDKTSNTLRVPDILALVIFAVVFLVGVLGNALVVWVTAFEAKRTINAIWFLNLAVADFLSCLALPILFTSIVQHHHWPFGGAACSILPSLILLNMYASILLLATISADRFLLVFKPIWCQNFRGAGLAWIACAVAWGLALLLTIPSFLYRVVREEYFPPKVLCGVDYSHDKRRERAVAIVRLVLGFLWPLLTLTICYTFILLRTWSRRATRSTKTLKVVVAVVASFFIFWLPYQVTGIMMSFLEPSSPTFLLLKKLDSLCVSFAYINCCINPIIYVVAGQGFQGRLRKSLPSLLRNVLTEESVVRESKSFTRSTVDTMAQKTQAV
Protocol: Follow up screening to ensure specificity was performed by measuring cell surface binding to cells expressing, for example, human C5aR1, human C5aR2, mouse C5aR1, and control cells that were mock transfected. Briefly, cell surface binding was performed on various C5aR1 expressing cell lines (transiently expressed Expi293 cells, stable C5aR1-U937 cells, and neutrophils isolated from whole blood). Briefly, a titration of antibody diluted in flow buffer (1×PBS with 2% fetal bovine serum) was incubated with cells for 1 hour at 4° C. Cells were washed twice with flow buffer. Anti-human-APC secondary antibody was diluted 1:400 in flow buffer and incubated with cells for 30 minutes. Cells were washed twice with flow buffer and resuspended in 100 μL of flow buffer. Fluorescence was measured using the iQue Screen Plus flow cytometer.
Exemplary anti-C5aR1 antibodies generated as described in Example 1 were tested for binding to human neutrophils. Briefly, cryopreserved human neutrophils were obtained from Asarte Biologics.

[2] = target: T2, C5aR1 mutants (N-terminus, ECL1, ECL2, ECL3) (Homo sapiens, UniProt P21730, K279N/Y11F); test: Alanine scanning / mutagenesis epitope mapping of C5aR1; type: binding; conditions: Y11F
T2 sequence (P21730 with tags, fused parts or gaps Y11F/K279N): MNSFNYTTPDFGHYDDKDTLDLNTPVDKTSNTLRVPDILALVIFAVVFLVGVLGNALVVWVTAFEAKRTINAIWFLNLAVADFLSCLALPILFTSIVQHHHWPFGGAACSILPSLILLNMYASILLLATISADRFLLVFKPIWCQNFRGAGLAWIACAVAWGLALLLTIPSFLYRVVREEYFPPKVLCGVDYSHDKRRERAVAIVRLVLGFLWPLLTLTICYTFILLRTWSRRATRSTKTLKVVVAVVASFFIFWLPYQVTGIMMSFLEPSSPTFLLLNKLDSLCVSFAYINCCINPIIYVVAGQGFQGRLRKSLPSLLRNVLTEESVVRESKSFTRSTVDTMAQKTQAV
Text: (§1) FIG. 5A is a diagram showing the results of alanine scanning mutations of site I interaction with mab 583. The N-terminal amino acid sequence of C5aR1 is listed across the top of the figure. Glycosylation sites are indicated by rectangle boxes. The only natural glycosylation site is at position N5. The other sites were introduced by mutagenesis. Mutations that abolished clone 583 binding are circled. The sulfated tyrosines at positions 11 and 14 are marked with a star sign. FIG. 5B is a diagram showing results of alanine scanning mutations of site I interaction with mab 66. Mutations that abolished clone 66 binding are circled. The sulfated tyrosines at positions 11 and 14 are marked with a star sign.
(§2) Ala substitutions of T8 & D10 moderately reduces its affinity while Y11 & D15 abolishes mAb binding. […] N-glycosylation of at N17 or D17P also abolishes mAb binding. N5 glycan is tolerated but a tandem glycosylation (N5 & N17) is not tolerated. mAb core epitopes are T8-G12 but nature of AA present in D15-D18 influence its binding. […] The core epitope appears to be located near T8-G12, with additional contributions from D15-D18.
(§3) Clone 66 was previously characterized as a site I binder and its binding is dependent on tyrosine sulfation at positions 11Y and/or 14Y. […] It should be noted that the only the only non-human species to retain clone 66 binding was baboon, which is the only NHP that retains the DYGHY motif.
(§4) However, it was unknown if additional contacts were made with ECL1 or ECL3. […] The data is highlighted in FIG. 5C-5E.
(§5) The core epitope of clone 11 is from E180-P183; the core epitope of clone 329 is from E180-P184; and the core epitope of clone 336 is from R178-P183. […] The data for clones 11, 329, and 336 is highlighted in FIG. 5F.

[3] = target: T3, C5aR1 mutants (N-terminus, ECL1, ECL2, ECL3) (Homo sapiens, UniProt P21730, K279N/Y14F); test: as above; type: binding; conditions: Y14F
T3 sequence (P21730 with tags, fused parts or gaps Y14F/K279N): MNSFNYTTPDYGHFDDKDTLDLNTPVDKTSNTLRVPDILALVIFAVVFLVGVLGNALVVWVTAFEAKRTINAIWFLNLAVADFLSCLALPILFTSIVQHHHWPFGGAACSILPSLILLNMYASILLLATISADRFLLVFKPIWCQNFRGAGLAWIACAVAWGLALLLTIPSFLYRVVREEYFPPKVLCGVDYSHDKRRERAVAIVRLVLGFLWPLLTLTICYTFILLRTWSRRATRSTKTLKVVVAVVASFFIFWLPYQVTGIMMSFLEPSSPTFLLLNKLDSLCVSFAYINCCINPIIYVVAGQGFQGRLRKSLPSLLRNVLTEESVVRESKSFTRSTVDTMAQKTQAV
Text: as §1, §2, §3, §4, §5

[4] = target: T4, C5aR1 (human neutrophils) (Homo sapiens, UniProt P21730); test: C5a induced calcium flux (Fluo-4), human neutrophils; type: cell-based
T4 construct: neutrophils isolated from whole blood; host or cells: human neutrophils (cryopreserved, or isolated from whole blood)
T4 sequence (P21730 1-350): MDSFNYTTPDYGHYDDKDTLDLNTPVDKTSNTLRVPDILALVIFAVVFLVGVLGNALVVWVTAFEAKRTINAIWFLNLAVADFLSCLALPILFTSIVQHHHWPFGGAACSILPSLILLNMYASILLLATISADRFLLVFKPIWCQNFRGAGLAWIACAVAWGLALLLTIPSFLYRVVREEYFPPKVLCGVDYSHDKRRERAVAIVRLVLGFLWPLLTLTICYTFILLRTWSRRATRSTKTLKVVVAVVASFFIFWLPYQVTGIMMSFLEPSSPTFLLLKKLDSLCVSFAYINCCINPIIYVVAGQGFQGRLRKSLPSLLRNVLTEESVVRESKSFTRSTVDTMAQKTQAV
Text: Intracellular calcium is released into the cytoplasm by stimulation of GPCRs and acts as a second messenger of GPCR signaling, commonly used to quantify GPCR agonism and antagonism. As such, calcium flux assays using calcium sensitive dye were utilized to detect cytosolic changes in calcium concentration. […] The dye penetrated the cell membrane and became active once inside the cell. The active form of the dye became fluorescent after binding to intracellular calcium and the fluorescence was used to determine C5aR1 signaling in response to C5a addition. Specifically, stable C5aR1-U937 cells or neutrophils isolated from whole blood were stained with Fluo-4 Direct Calcium Assay kit from Thermo Fisher for 1 hour at 37° C. Next, antibody or antagonist was incubated with the cells for 30 minutes. The basal fluorescence with an excitation at 494 nm and emission at 516 nm was measured for 15 seconds. C5a was added to the cells and the fluorescence was measured over a span of four minutes. The basal read from before C5a stimulation and the max signal after C5a stimulation were used to calculate the response ratio. The potency of the antibodies was assessed for their ability to inhibit intracellular calcium release in C5aR1 expressing cells in the presence of C5a. Similar to the chemotaxis assay, the calcium flux assays were performed using engineered cells stably expressing C5aR1 as well as using human neutrophils.

level of binding to human neutrophils [1] | Molecule | binding to C5aR1 mutant [2] | binding to C5aR1 mutant [3] | inhibition of C5a induced calcium efflux [4]
highest level of neutrophil binding | clone 66: anti-C5aR1 Site I antibody; VH SEQ ID NO: 483, VL SEQ ID NO: 543 (antibody, V domains shown) VH: QVQLQQSDAELVKPGASVKISCKASGYTFIDHAIHWVKQRPEQGLEWIGYISPGNGEIKYNEKFKAKATLTADKSSSAAYMQLNSLTSADSAVYFCKRALFYYTGKYQPMDYWGQGTTVTDSS VL: DIVMTQSQKFMSTTAGDRVSITCKASQNVGSAVVWYQQKPGRSPKLLIYSSSIRYTGVPDRFTGSGSGTDFTLTINSVQSEDLADYFCQQYNSFPLTFGAGTKLEIK | did not impact binding | abolished binding | 
highest level of neutrophil binding | clone 329: anti-C5aR1 Site II antibody; VH SEQ ID NO: 492, VL SEQ ID NO: 552 (antibody, V domains shown) VH: QVQLQQSGAELTKPGASVKLSCKASGYTFTNYWMHWVKQRPGQGLEWIGYLNPSSGYTKYNQKFKDKATLTADKSSSTAYMQLNSLTYEDSAVYYCTRSGGDNYGNPYYFDRWGQGTTVTVSS VL: DVVMTQTPLSLTVSLGDQASISCRSSQSLVHSNGNTYLHWYLQKPGQSPKFLIYKVSNRFSGVPDRFSGSGSGTDFRLKISRVEAEDLGVYFCSQSTLVPLTFGAGTKLEIK |  |  | inhibition of the C5a induced calcium efflux
 | clone 583: anti-C5aR1 Site I antibody; VH SEQ ID NO: 536, VL SEQ ID NO: 595 (antibody, V domains shown) VH: EVQLVESGGGLVKPGGSLKLSCAASGFTFNAYAMSWVRQTPEKRLEWVASISTGGNTYCPDSVKDRFTVSRDNVRNILYLQMSSLRSEDTAMYYCTRGYQRFSGFAYWGQGTLVTVS VL: DVVMTQTPLSPPVSLGYQASISCRSSQSLVHSNGNTYLNWYLQKPGQSPKLLIYKVSNRLSGVPDRFSGSGSGTDFTLKISRVETEDLGVYFCSQSTHVPYTFGGGTKLEIK | does not abolish binding |  | inhibition of the C5a induced calcium efflux
